Experiment [1] addresses T1, SV40 T antigen (SV40, UniProt P03070 1-708).
T1 construct: also called T-Ag; viral (SV40) T antigen
Briefly: recruitment to inclusions, fluorescence microscopy of cells.

For experiment [2], the target named is T2, T Antigen-HA fusion protein (SV40, UniProt P03070 1-708).
T2 construct: Construct is not described
Briefly: fluorescence microscopy of COS cells expressing T Antigen-HA with GFP-471-721.

T2 sequence (P03070 1-708, tags or fused parts left off): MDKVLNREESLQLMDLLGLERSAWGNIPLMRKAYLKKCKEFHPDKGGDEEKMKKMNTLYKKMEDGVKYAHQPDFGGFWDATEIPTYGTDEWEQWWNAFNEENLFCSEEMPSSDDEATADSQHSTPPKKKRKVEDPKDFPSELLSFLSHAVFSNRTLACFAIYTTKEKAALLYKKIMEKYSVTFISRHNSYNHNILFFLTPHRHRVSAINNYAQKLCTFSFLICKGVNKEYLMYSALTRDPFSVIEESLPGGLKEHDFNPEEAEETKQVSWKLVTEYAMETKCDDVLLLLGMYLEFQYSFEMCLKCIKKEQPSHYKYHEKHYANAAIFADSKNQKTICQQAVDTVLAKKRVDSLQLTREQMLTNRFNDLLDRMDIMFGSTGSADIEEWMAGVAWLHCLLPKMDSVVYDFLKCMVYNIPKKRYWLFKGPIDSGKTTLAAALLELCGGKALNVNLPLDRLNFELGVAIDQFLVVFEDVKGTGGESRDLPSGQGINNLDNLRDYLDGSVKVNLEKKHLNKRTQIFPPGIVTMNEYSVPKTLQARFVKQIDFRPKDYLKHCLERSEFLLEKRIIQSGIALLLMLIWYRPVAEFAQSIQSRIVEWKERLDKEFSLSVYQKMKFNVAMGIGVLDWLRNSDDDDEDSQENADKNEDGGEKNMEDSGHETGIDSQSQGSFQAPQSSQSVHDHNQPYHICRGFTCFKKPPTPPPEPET

B1: GFP/µNS(471-721) (other)
chain: SNDVTDGIKLQLDASRQCHECPVLQQKVVELEKQIIMQKSIQSDPTPVALQPLLSQLRELSSEVTRLQMELSRAQSLNAQLEADVKSAQSCSLDMYLRHHTCINGHAKEDELLDAVVAPDVRREIMEKRSEVRQGWCERISKEAAAKCQTVIDDLTLMNGKQAQEITELRDSAEKYEKQIAELVSTITQNQITYQQELQALVAKNVELDALNQRQAKSLRITPSLLSATPIDSVDDVADLIDFSVPTDEL
notes: Expressed from pEGFP-C1-M3(471-721); GFP at the N terminus of µNS residues 471-721; also called GFP-471-721 fusion protein; EGFP/µNS(471-721); not shown: enhanced Aequorea victoria green fluorescent protein (EGFP) as encoded by the pEGFP-C1 vector (BD Biosciences); the enha
With B1, the binding result in experiment [1] and in experiment [2] was “no binding” in each case.

The values above are taken from patent US8652796 (Harvard, dated 2014).
